Assay results reported in the supplement of paper PMC7877785.
± gives the uncertainty stated by the source.

Test: self-splicing fitness, log relative to wild type (ln ratio); higher = more splicing; Tetrahymena group I intron in knt gene, E. coli kanamycin selection, DiMSum; sequences stand for … in CUCUCU…GGAGGGAAAAGUUAUCAGGCAUGCACCUGGUAGCUAGUCUUUAAACCAAUAGAUUGCAUCGGUUUAAAAGGCAAGACCGUCAAAUUGCGGGAAAGGGGUCAACAGCCGUUCAGUACCAAGUCUCAGGGGAAACUUUGAGAUGGCCUUGCAAAGGGUAUGGUAAUAAGCUGACGGACAUGGUCCUAACCACGCAGCCAAGUCCUAAGUCAACAGAUCUUCUGUUGAUAUGGAUGCAGUUCACAGACUAAAUGUCGGUCGGGGAAGAUGUAUUCUUCUCAUAAGAUAUAGUCGGACCUCUCCUUAAUGGGAGCUAGCGGAUGAAGUGAUGCAACACUGGAGCCGCUGGGAACUAAUUUGUAUGCGAAAGUAUAUUGAUUAGUUUUGGAGUACUCGUGGUCG
In short: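 Colonies from six replicate transformations of E. coli BL21(DE3) were pooled and amplicon-sequenced on an Illumina HiSeq 2500. The library placed an intron with all eight P1ex-region nucleotides randomised inside the knt kanamycin-resistance gene on pET-22b(+), and cells grew overnight at 37°C or 30°C on LB agar with or without 25 μg/mL kanamycin (plus 100 μg/mL carbenicillin, 50 μM IPTG, 0.2% rhamnose). Fitness is the DiMSum error-weighted combination of wild-type-normalised replicate fold changes, kanamycin versus none.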

Row | Sequence | self-splicing fitness (ln) (30 °C) | self-splicing fitness (ln) (37 °C)
1 | GUUGAGCAAUAUUACGAAAU | -3.35 ± 0.44 | -0.897 ± 0.27
2 | GUUGAGCAAUAUUACGAACA | -2.67 ± 0.4 | -1.69 ± 0.32
3 | GUUGAGCAAUAUUACGAAUG |  | -1.68 ± 0.44
4 | GUUGAGCAAUAUUACGAUAG |  | -3.04 ± 0.31
5 | GUUGAGCAAUAUUACGAUCA | -2.74 ± 0.37 | 0.523 ± 0.28
6 | GUUGAGCAAUAUUACGAUCU | -0.691 ± 0.093 | -1.12 ± 0.11
7 | GUUGAGCAAUAUUACGCAGU |  | -1.25 ± 0.4
8 | GUUGAGCAAUAUUACGCGGA |  | -0.744 ± 0.35
9 | GUUGAGCAAUAUUACGCGUU | -4.25 ± 0.46 | -2.15 ± 0.28
10 | GUUGAGCAAUAUUACGGAUU | -2.6 ± 0.34 | -1.56 ± 0.21
11 | GUUGAGCAAUAUUACGGCAA | -1.78 ± 0.42 | -0.283 ± 0.48
12 | GUUGAGCAAUAUUACGGGAA | -3.4 ± 0.23 | -2.39 ± 0.23
13 | GUUGAGCAAUAUUACGUAAU | -1.76 ± 0.093 | -0.913 ± 0.12
14 | GUUGAGCAAUAUUACGUAUA | -2.17 ± 0.29 | 
15 | GUUGAGCAAUAUUACGUCCA | -2.21 ± 0.34 | 
16 | GUUGAGCAAUAUUACGUCGG | -3.61 ± 0.39 | -1.61 ± 0.27
17 | GUUGAGCAAUAUUACGUGAU | -2.14 ± 0.19 | -1.6 ± 0.27
18 | GUUGAGCAAUAUUACGUGUA | -3 ± 0.21 | 
19 | GUUGAGCAAUAUUACGUUCU | -1.82 ± 0.14 | -1.2 ± 0.13
20 | GUUGAGCAAUAUUACGUUUC | -2.09 ± 0.2 | -3.1 ± 0.34
21 | GUUUAGCAAUAUUACGAGAC | -3.35 ± 0.49 | -2.08 ± 0.32
22 | GUUUAGCAAUAUUACGAGCC | -3.21 ± 0.21 | -1.56 ± 0.2
23 | GUUUAGCAAUAUUACGAGGG | -3.76 ± 0.36 | -2.73 ± 0.34

Row | Sequence | self-splicing fitness (ln) (30 °C) | self-splicing fitness (ln) (37 °C)
24 | GUUUAGCAAUAUUACGAUAU | -1.18 ± 0.14 | -0.528 ± 0.16
25 | GUUUAGCAAUAUUACGAUCU | -0.663 ± 0.12 | -0.195 ± 0.18
26 | GUUUAGCAAUAUUACGCUCA | 0.0718 ± 0.14 | 0.432 ± 0.2
27 | GUUUAGCAAUAUUACGCUGG | -2.55 ± 0.25 | -0.944 ± 0.26
28 | GUUUAGCAAUAUUACGGAAC | -2.74 ± 0.39 | 
29 | GUUUAGCAAUAUUACGGAUA | -2.77 ± 0.27 | -1.37 ± 0.19
30 | GUUUAGCAAUAUUACGGAUC | -1.18 ± 0.11 | 0.125 ± 0.12
31 | GUUUAGCAAUAUUACGGCCG | -2.4 ± 0.18 | -0.926 ± 0.21
32 | GUUUAGCAAUAUUACGGCGC | 0.141 ± 0.16 | 0.337 ± 0.17
33 | GUUUAGCAAUAUUACGGCGU | -0.507 ± 0.094 | -0.0237 ± 0.12
34 | GUUUAGCAAUAUUACGGUAA | -1.65 ± 0.18 | -1.24 ± 0.14
35 | GUUUAGCAAUAUUACGGUCC | -0.925 ± 0.11 | -0.109 ± 0.12
36 | GUUUAGCAAUAUUACGGUUG | -3.13 ± 0.36 | -1.47 ± 0.28
37 | GUUUAGCAAUAUUACGUAAA | -2.64 ± 0.18 | -0.672 ± 0.18
38 | GUUUAGCAAUAUUACGUACC | -1.45 ± 0.48 | 
39 | GUUUAGCAAUAUUACGUAUA | -2.12 ± 0.16 | -1.41 ± 0.22
40 | GUUUAGCAAUAUUACGUCUA | -1.25 ± 0.14 | -0.618 ± 0.13
41 | GUUUAGCAAUAUUACGUUCC | -0.783 ± 0.26 | 
42 | GUUUAGCAAUAUUACGUUCG | -1.61 ± 0.13 | -0.589 ± 0.14
43 | GUUUAGCAAUAUUACGUUUG | -3.92 ± 0.33 | -1.45 ± 0.21
44 | UAAAAGCAAUAUUACGACCU | -0.4 ± 0.085 | 0.0792 ± 0.098
45 | UAAAAGCAAUAUUACGACUC | -1.22 ± 0.12 | -0.668 ± 0.18
